Reference: US20210380703A1 (RIGEL PHARMACEUTICALS, published 2021)

Assays:
Human ACVR2A = biological target: T1, Human ACVR2A (human, UniProt P27037 20-135, limits assumed); assay: ELISA
T1 construct: also called activin receptor, type II A
Summary of the method: (§1)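 Binding signal was read by ELISA after ACVR2A-specific monoclonal antibodies were tested against human ACVR2A and mouse ACVR2A, with human Fc as the negative control.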

Mouse ACVR2A = Mouse ACVR2A (mouse, UniProt P27038 20-135, limits assumed); assay: ELISA
Sequence of Mouse ACVR2A (P27038 20-135 limits assumed): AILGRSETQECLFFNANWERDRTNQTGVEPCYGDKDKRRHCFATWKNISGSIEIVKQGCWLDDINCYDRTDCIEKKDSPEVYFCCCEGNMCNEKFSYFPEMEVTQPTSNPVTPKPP
Summary of the method: as §1

Goat anti-Human Kappa = biological target: T2, Goat anti-Human Kappa; assay: ELISA; positive control
T2 construct: Positive control; also called biotinylated goat anti-human kappa light chain
Summary of the method: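 Monoclonal antibodies were first applied to human or mouse ACVR2A, alongside biotinylated goat anti-human kappa light chain (positive control) and human Fc (negative control); binding was then determined by ELISA.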
Also: test concentration or dose not given here.

T1 sequence (P27037 20-135 limits assumed): as the sequence (P27038 20-135 limits assumed) above, with R20K, I73V counted along it

B1: 375_C01 (antibody, V domains shown)
VH: EVQLLESGGGLVQPGGSLRLSCAASGFTFSSYGMNWVRQAPGKGLEWVSSINYNGGYKGYADSVKGRFTISRDNSKNTLYLQMNSLRAEDTAVYYCARGATWHDTHLDYWGQGTLVTVSS
VL: not shown
notes: VH/VL only
- optical density (Human ACVR2A): 2.96 OD
- optical density (Mouse ACVR2A): 3.27 OD
- optical density (Goat anti-Human Kappa): 3.14 OD

B2: 375_C11 (antibody, V domains shown)
VH: EVQLLESGGGLVQPGGSLRLSCAASGFTFSSYSMNWVRQAPGKGLEWVSSINYNGGYTSYADSVKGRFTISRDNSKNTLYLQMNSLRAEDTAVYYCARGATWHDTHLDYWGQGTLVTVSS
VL: DIQMTQSPSSLSASVGDRVTITCRASQSILSYVNWYQQKPGKAPKLLIYAATSRHSGVPSRFSGSGSGTDFTLTISSLQPEDFATYYCQQSYDTPLTFGGGTKVEIK
notes: VH/VL only
- optical density (Human ACVR2A): 3.59 OD
- optical density (Mouse ACVR2A): 3.61 OD
- optical density (Goat anti-Human Kappa): 3.26 OD

B3: 375_F10 (antibody, V domains shown)
VH: EVQLLESGGGLVQPGGSLRLSCAASGFTFSSYSMNWVRQAPGKGLEWVSGINYNGGYTGYADSVKGRFTISRDNSKNTLYLQMNSLRAEDTAVYYCARGATWHDTHLDYWGQGTLVTVSS
VL: DIQMTQSPSSLSASVGDRVTITCRASQSILTYLNWYQQKPGKAPKLVIYAATSRASGVPSRFSGSGSGTDFTLTISSLQPEDFATYYCQQSYDTPLTFGGGTKVEIK
notes: VH/VL only
- optical density (Human ACVR2A): 3.69 OD
- optical density (Mouse ACVR2A): 3.77 OD
- optical density (Goat anti-Human Kappa): 3.29 OD

B4: 375_H08 (antibody, V domains shown)
VH: EVQLLESGGGLVQPGGSLRLSCAASGFTFSSYSMNWVRQAPGKGLEWVSGINYNGGYTSYADSVKGRFTISRDNSKNTLYLQMNSLRAEDTAVYYCARGATWHDTHLDYWGQGTLVTVSS
VL: DIQMTQSPSSLSASVGDRVTITCRASQSILTYLNWYQQKPGKAPKLLIYAATSLASGVPSRFSGSGSGTDFTLTISSLQPEDFATYYCQQSYDSPLTFGGGTKVEIK
notes: VH/VL only
- optical density (Human ACVR2A): 3.31 OD
- optical density (Mouse ACVR2A): 3.28 OD
- optical density (Goat anti-Human Kappa): 3.32 OD

B5: 376_A02 (antibody, V domains shown)
VH: EVQLLESGGGLVQPGGSLRLSCAASGFTFSSYSMNWVRQAPGKGLEWVAGINYNGGYKSYADSVKGRFTISRDNSKNTLYLQMNSLRAEDTAVYYCARGATWHDTHLDYWGQGTLVTVSS
VL: DIQMTQSPSSLSASVGDRVTITCRASQSILSYLNWYQQKPGKAPKLLIYAATSRASGVPSRFSGSGSGTDFTLTISSLQPEDFATYYCQQSYDLPLTFGGGTKVEIK
notes: VH/VL only
- optical density (Human ACVR2A): 3.72 OD
- optical density (Mouse ACVR2A): 3.63 OD
- optical density (Goat anti-Human Kappa): 3.19 OD

B6: 376_A05 (antibody, V domains shown)
VH: EVQLLESGGGLVQPGGSLRLSCAASGFTFSSYSMNWVRQAPGKGLEWVAGINYNSGYKGYADSVKGRFTISRDNSKNTLYLQMNSLRAEDTAVYYCARGATWHDTHLDYWGQGTLVTVSS
VL: DIQMTQSPSSLSASVGDRVTITCRASQSILTYLNWYQQKPGKAPKLLIYAATSRASGVPSRFSGSGSGTDFTLTISSLQPEDFATYYCQQSYNTPLTFGGGTKVEIK
notes: VH/VL only
- optical density (Human ACVR2A): 3.65 OD
- optical density (Mouse ACVR2A): 3.64 OD
- optical density (Goat anti-Human Kappa): 3.18 OD

B7: 376_A07 (antibody, V domains shown)
VH: EVQLLESGGGLVQPGGSLRLSCAASGFTFSSYSMNWVRQAPGKGLEWVSGINYNGGYKSYADSVKGRFTISRDNSKNTLYLQMNSLRAEDTAVYYCARGATWHDTHLDYWGQGTLVTVSS
VL: DIQMTQSPSSLSASVGDRVTITCRASQSILTYLNWYQQKPGKAPKLLIYAATSRASGVPSRFSGSGSGTDFTLTISSLQPEDFATYYCQQSYDSPLTFGGGTKVEIK
notes: VH/VL only
- optical density (Human ACVR2A): 3.7 OD
- optical density (Mouse ACVR2A): 3.72 OD
- optical density (Goat anti-Human Kappa): 3.19 OD

B8: 376_F06 (antibody, V domains shown)
VH: EVQLLESGGGLVQPGGSLRLSCAASGFTFSSYGMNWVRQAPGKGLEWVSGINYNGGYTGYADSVKGRFTISRDNSKNTLYLQMNSLRAEDTAVYYCARGANWHDTHLDYWGQGTLVTVSS
VL: DIQMTQSPSSLSASVGDRVTITCRASQSILTYVNWYQQKPGKAPKLVIYAATSRASGVPSRFSGSGSGTDFTLTISSLQPEDFATYYCQQSYETPLTFGGGTKVEIK
notes: VH/VL only
- optical density (Human ACVR2A): 3.52 OD
- optical density (Mouse ACVR2A): 3.65 OD
- optical density (Goat anti-Human Kappa): 3.47 OD

B9: 376_G05 (antibody, V domains shown)
VH: EVQLLESGGGLVQPGGSLRLSCAASGFTFSSYSMNWVRQAPGKGLEWVAGINYNGGYTSYADSVKGRFTISRDNSKNTLYLQMNSLRAEDTAVYYCARGANWHDTALDYWGQGTLVTVSS
VL: DIQMTQSPSSLSASVGDRVTITCRASQSIISYVNWYQQKPGKAPKLVIYAATSRASGVPSRFSGSGSGTDFTLTISSLQPEDFATYYCQQSYESPLTFGGGTKVEIK
notes: VH/VL only
- optical density (Human ACVR2A): 3.75 OD
- optical density (Mouse ACVR2A): 3.77 OD
- optical density (Goat anti-Human Kappa): 3.49 OD

B10: 376_G06 (antibody, V domains shown)
VH: EVQLLESGGGLVQPGGSLRLSCAASGFTFSSYGMNWVRQAPGKGLEWVAGINYNGGYTGYADSVKGRFTISRDNSKNTLYLQMNSLRAEDTAVYYCARGANWHDTHLDYWGQGTLVTVSS
VL: DIQMTQSPSSLSASVGDRVTITCRASQSIVSYVNWYQQKPGKAPKLVIYAATSRASGVPSRFSGSGSGTDFTLTISSLQPEDFATYYCQQSYNSPLTFGGGTKVEIK
notes: VH/VL only
- optical density (Human ACVR2A): 3.42 OD
- optical density (Mouse ACVR2A): 3.58 OD
- optical density (Goat anti-Human Kappa): 3.49 OD

B11: 376_G10 (antibody, V domains shown)
VH: EVQLLESGGGLVQPGGSLRLSCAASGFTFDSYGMNWVRQAPGKGLEWVAGINYNGGYTSYADSVKGRFTISRDNSKNTLYLQMNSLRAEDTAVYYCARGANWHDTALDYWGQGTLVTVSS
VL: DIQMTQSPSSLSASVGDRVTITCRASQSILSYVNWYQQKPGKAPKLLIYAATSRASGVPSRFSGSGSGTDFTLTISSLQPEDFATYYCQQSYESPLTFGGGTKVEIK
notes: VH/VL only
- optical density (Human ACVR2A): 3.54 OD
- optical density (Mouse ACVR2A): 3.52 OD
- optical density (Goat anti-Human Kappa): 3.54 OD

B12: 376_H01 (antibody, V domains shown)
VH: EVQLLESGGGLVQPGGSLRLSCAASGFTFSDYSMNWVRQAPGKGLEWVAGINYNGGYKGYADSVKGRFTISRDNSKNTLYLQMNSLRAEDTAVYYCARGANWHDTALDYWGQGTLVTVSS
VL: DIQMTQSPSSLSASVGDRVTITCRASQSILTYLNWYQQKPGKAPKLLIYAATSRASGVPSRFSGSGSGTDFTLTISSLQPEDFATYYCQQSYSTPLTFGGGTKVEIK
notes: VH/VL only
- optical density (Human ACVR2A): 3.11 OD
- optical density (Mouse ACVR2A): 3.31 OD
- optical density (Goat anti-Human Kappa): 3.28 OD

B13: 376_H04 (antibody, V domains shown)
VH: EVQLLESGGGLVQPGGSLRLSCAASGFTFSSYSMNWVRQAPGKGLEWVAGINYNGGYKGYADSVKGRFTISRDNSKNTLYLQMNSLRAEDTAVYYCARGANWHDTALDYWGQGTLVTVSS
VL: DIQMTQSPSSLSASVGDRVTITCRASQSILTYVNWYQQKPGKAPKLVIYAATSRASGVPSRFSGSGSGTDFTLTISSLQPEDFATYYCQQSYDLPLTFGGGTKVEIK
notes: VH/VL only
- optical density (Human ACVR2A): 3.31 OD
- optical density (Mouse ACVR2A): 3.34 OD
- optical density (Goat anti-Human Kappa): 3.51 OD

B14: 376_H11 (antibody, V domains shown)
VH: EVQLLESGGGLVQPGGSLRLSCAASGFTFDSYSMNWVRQAPGKGLEWVSNINYNGGYTGYADSVKGRFTISRDNSKNTLYLQMNSLRAEDTAVYYCARGANWHDTALDYWGQGTLVTVSS
VL: DIQMTQSPSSLSASVGDRVTITCRASQSISRYLNWYQQKPGKAPKLLIYAVTSLASGVPSRFSGSGSGTDFTLTISSLQPEDFATYYCQQSYESPLTFGGGTKVEIK
notes: VH/VL only
- optical density (Human ACVR2A): 3.29 OD
- optical density (Mouse ACVR2A): 3.31 OD
- optical density (Goat anti-Human Kappa): 3.43 OD

B15: 365_B01 (antibody, V domains shown)
VH: EVQLLESGGGLVQPGGSLRLSCAASGFTFDSYGMHWVRQAPGKGLEWVASINYNSGYTSYADSVKGRFTISRDNSKNTLYLQMNSLRAEDTAVYYCARSANWHDTALDYWGQGTLVTVSS
VL: DIQMTQSPSSLSASVGDRVTITCRASQSISSYVNWYQQKPGKAPKLVIYAATSRASGVPSRFSGSGSGTDFTLTISSLQPEDFATYYCQQSYESPLTFGGGTKVEIK
notes: VH/VL only
- optical density (Human ACVR2A): 2.39 OD
- optical density (Mouse ACVR2A): 2.65 OD
- optical density (Goat anti-Human Kappa): 3.49 OD

B16: 365_B06 (antibody, V domains shown)
VH: EVQLLESGGGLVQPGGSLRLSCAASGFTFDSYGMHWVRQAPGKGLEWVSNINYNGGYKSYADSVKGRFTISRDNSKNTLYLQMNSLRAEDTAVYYCARSANWHDTALDYWGQGTLVTVSS
VL: DIQMTQSPSSLSASVGDRVTITCRASQSILTYVNWYQQKPGKAPKLLIYATTSLASGVPSRFSGSGSGTDFTLTISSLQPEDFATYYCQQSYDLPLTFGGGTKVEIK
notes: VH/VL only
- optical density (Human ACVR2A): 2.25 OD
- optical density (Mouse ACVR2A): 2.42 OD
- optical density (Goat anti-Human Kappa): 3.28 OD

B17: 365_C01 (antibody, V domains shown)
VH: EVQLLESGGGLVQPGGSLRLSCAASGFTFDSYGMNWVRQAPGKGLEWVSSINYNSGYKSYADSVKGRFTISRDNSKNTLYLQMNSLRAEDTAVYYCARSANWHDTHLDYWGQGTLVTVSS
VL: DIQMTQSPSSLSASVGDRVTITCRASQSIVSYLNWYQQKPGKAPKLVIYAVTSRASGVPSRFSGSGSGTDFTLTISSLQPEDFATYYCQQSYESPLTFGGGTKVEIK
notes: VH/VL only
- optical density (Human ACVR2A): 2.87 OD
- optical density (Mouse ACVR2A): 3.02 OD
- optical density (Goat anti-Human Kappa): 3.63 OD

B18: 365_C12 (antibody, V domains shown)
VH: EVQLLESGGGLVQPGGSLRLSCAASGFTFSSYGMNWVRQAPGKGLEWVAGINYNSGYKSYADSVKGRFTISRDNSKNTLYLQMNSLRAEDTAVYYCARSANWHDTALDYWGQGTLVTVSS
VL: DIQMTQSPSSLSASVGDRVTITCRASQSIVSYVNWYQQKPGKAPKLVIYAVTSLASGVPSRFSGSGSGTDFTLTISSLQPEDFATYYCQQSYDTPLTFGGGTKVEIK
notes: VH/VL only
- optical density (Human ACVR2A): 1.92 OD
- optical density (Mouse ACVR2A): 2.04 OD
- optical density (Goat anti-Human Kappa): 3.58 OD

B19: 365_F01 (antibody, V domains shown)
VH: EVQLLESGGGLVQPGGSLRLSCAASGFTFDSYSMNWVRQAPGKGLEWVSGINYNSGYKGYADSVKGRFTISRDNSKNTLYLQMNSLRAEDTAVYYCARSANWHDTHLDYWGQGTLVTVSS
VL: DIQMTQSPSSLSASVGDRVTITCRASQSIVSYLNWYQQKPGKAPKLVIYAATSLASGVPSRFSGSGSGTDFTLTISSLQPEDFATYYCQQSYELPLTFGGGTKVEIK
notes: VH/VL only
- optical density (Human ACVR2A): 2.51 OD
- optical density (Mouse ACVR2A): 2.47 OD
- optical density (Goat anti-Human Kappa): 3.51 OD
